Drawing on paper doi:10.1101/2021.08.31.458345, this text covers stoichiometry N for two substances.

Assay [1] has as its target gp41 subunit of ADA.CM.v4 Env (CTD truncated by 102 amino acids) (HIV-1 (subtype B isolate ADA)). As to the kind of experiment: cryo-EM structure.
The target of assay [2] is immature Gag polyprotein (pr55 Gag precursor) (HIV-1). As to the kind of experiment: cryo-EM structure.

As a reminder, the stoichiometry N is the number of molecules, sites or subunits per partner or assembly. “gp41 subunit of ADA.CM.v4 Env (CTD truncated by 102 amino acids) (domain or fragment)”: the stoichiometry N in assay [1] came to 3.

With “immature Gag polyprotein (pr55 Gag precursor) (natural protein)”, the stoichiometry N in assay [2] was determined as 6.
